Experimental data from US8388937B2, “Specific peptide binding to glypican-3” (Kyungpook National University Industry—Academic Cooperation …, priority 2009, dated 2013).
Where no end group is shown, it is not given here. The star is where a group is joined. FITC = O=C1OC2(c3ccc(O)cc3Oc3cc(O)ccc32)c2ccc(NC(=S)*)cc21

Legend:
Type in all cases: cell-based
GPC-3 protein [1] = target: T1, GPC-3 protein (Homo sapiens, UniProt P51654); test: Overlay assay of FITC-labeled peptide on cell lines in which GPC-3 protein was expressed; parameters: the human hepatocellular carcinoma cell line HepG2 in which GPC-3 protein was expressed; endogenous in cells; host or cells: HepG2, Huh-7, SkMel28 (ATCC)
T1 sequence (P51654 25-554): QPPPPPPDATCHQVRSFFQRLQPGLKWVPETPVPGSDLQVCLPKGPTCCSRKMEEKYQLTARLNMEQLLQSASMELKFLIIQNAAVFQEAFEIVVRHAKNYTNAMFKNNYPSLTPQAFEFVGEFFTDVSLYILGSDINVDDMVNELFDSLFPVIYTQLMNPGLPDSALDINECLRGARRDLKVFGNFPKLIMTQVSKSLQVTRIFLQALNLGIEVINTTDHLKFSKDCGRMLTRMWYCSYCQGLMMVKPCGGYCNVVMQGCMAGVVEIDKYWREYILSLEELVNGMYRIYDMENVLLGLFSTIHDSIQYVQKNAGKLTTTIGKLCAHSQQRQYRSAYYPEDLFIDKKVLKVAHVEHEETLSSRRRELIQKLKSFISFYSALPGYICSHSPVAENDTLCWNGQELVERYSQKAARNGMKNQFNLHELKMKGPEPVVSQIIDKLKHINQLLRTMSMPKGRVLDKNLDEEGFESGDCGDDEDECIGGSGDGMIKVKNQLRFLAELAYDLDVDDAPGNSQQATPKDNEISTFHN
Experimental: (§1) The peptide synthesized in Example 8 was subjected to an overlay assay. First, the human hepatocellular carcinoma cells (HepG2, Huh-7) and the renal cell (HEK293) were cultured to about 1×10^5 in an 8-well chamber slide, followed by washing three times with PBS for three min. In order to prevent non-specific reactions, a reaction was performed in Opti-MEM supplemented with 1% BSA for 1 hour. Again, washing was performed three times with PBS for three min, and then cells were fixed with a fixative containing ethanol and acetone at 2:1 for 3 min. The cells were mounted in Mounting medium supplemented with DAPI. FIGS. 8 through 10 illustrate the results.

[2] = test system: renal cell lines in which GPC-3 protein was not expressed (HEK-293, Cos-7); test: Overlay assay of FITC-labeled peptide on cells in which GPC-3 protein was not expressed
Experimental: as §1

GPC-3 protein [3] = target: T1, GPC-3 protein; test: Overlay assay on HepG2 in competition with equivalent peptide to which FITC was not bound; parameters: the human hepatocellular carcinoma cell line HepG2 in which GPC-3 protein was expressed; endogenous in cells; host or cells: HepG2; settings: competition with unlabeled peptide for bonding to GPC-3 protein
Experimental: as §1
FIG. 9 illustrates image results obtained from reaction of a peptide (FITC-RLNVGGTYFLTTRQ) containing the amino acid sequence of SEQ ID No.1 to the human hepatocellular carcinoma cell line HepG2 in which GPC-3 protein was expressed with an equivalent peptide to which FITC were not bound. […] Because a peptide in which a fluorescent material was not labeled and a fluorescent material labeled peptide were competing for bonding to GPC-3 protein, a fluorescent material labeled peptide became less likely to bind to GPC-3.

Substance	fluorescence by FITC (overlay, FIG. 7) (GPC-3 protein [1]; cell lines in which GPC-3 protein was expressed: HepG2, Huh-7, SkMe128, HEK-293 with GPC-3)	fluorescence by FITC (overlay, FIG. 7) ([2]; renal cell lines in which GPC-3 protein was not expressed: HEK-293, Cos-7)	fluorescence by FITC in presence of equivalent peptide to which FITC was not bound (FIG. 9) (GPC-3 protein [3])	fluorescence by FITC (overlay, FIG. 8) (GPC-3 protein [1]; cell lines in which GPC-3 protein was expressed: HepG2, SkMe128, HEK-293 with GPC-3)	fluorescence by FITC (overlay, FIG. 8) ([2]; renal cell line in which GPC-3 protein was not expressed: Cos-7)
FITC-RLNVGGTYFLTTRQ ({FITC}-RLNVGGTYFLTTRQ)	fluorescence by FITC was observed	fluorescence was not observed	fluorescence was not observed	–	–
FITC-YFLTTRQ ({FITC}-YFLTTRQ)	–	–	–	fluorescence by FITC was observed	fluorescence was not observed
